In PMC8794075 (Emerging Microbes & Infections, 2022):

Assays:
[1] = target: SARS-CoV-2 RBD protein (wild type) (SARS-CoV-2, UniProt P0DTC2); experiment: ELISA; details: both partners purified
SARS-CoV-2 NTD protein = SARS-CoV-2 NTD protein (SARS-CoV-2 Wuhan-Hu-1, UniProt P0DTC2); experiment: ELISA; details: both partners purified

B1: MAb S3H3 (antibody, V domains shown)
VH: QVQLQQPGAELVRPGASVKLSCKASGYSFTRFWMNWVKQRPGQGLEWIGMIHPSDSETRLNQKFKDKATLTVDKSSTTAYMQLSSPTSEDSAVYYCARKDYDYDAWFAYWGQGTLVTVSA
VL: DIVLTQSPASLAVSLGQRATISCRASKSVSASVYSYMHWYQQKPGQPPKLLIYLASSLESGVPARFSGSGSGTDFTLNIHPVEEEDAATYYCHHSRELPPAFGGGTKLEIK
binding result [1]: no binding (tested: 100 ng/well)
binding result (SARS-CoV-2 NTD protein): no binding (tested: 100 ng/well)
